Data as given in US10174336B2, “Herbicide-tolerant plants” (BASF Agrochemical Products B.V., priority 2010, dated 2019).

Assays:
OsICYP81A6 = assay: Yeast expression system, saflufenacil metabolism (LC/MS/MS); format: in vitro ADME, rice
Description: Rice cytochrome P450 81A6 was cloned into pESC-His yeast expression vector (Stratagene) using BamHI and SalI. Constructs were transformed into YPH500 yeast strain (Stratagene) using a Yeast Maker Transformation System from Clontech. Positive clones were selected on SD-agar plates (0.7% yeast nitrogen base without amino acids, 2% glucose, 0.13% amino acid drop-out without histidine; plates solidified with 2% agar). Bioconversion of substrates was directly assayed in yeast cells expressing the respective cytochrome P450 gene. Cells were induced in SG-His medium (same composition as SD but with galactose instead of glucose) for 18-24 h (Pompon et al., Methods in Enzymology 272:51-64 (1996); Urban et al., Eur. J. Biochem. 222:[…] (1994)). Afterwards, the BAS800H substrate was added and samples were incubated for an additional 24 h. Samples were analyzed by LC/MS/MS.

Sb01g007420.1 = assay: as above; format: in vitro ADME, sorghum; settings: yeast cells expressing Sb01g007420.1, 24 h incubation
T0 soybean cuttings = assay: Soybean T0 cuttings saflufenacil spray test; format: in vivo, Soybean cv Williams 82; settings: 0, 25, or 50 g ai/ha saflufenacil + 1% MSO; evaluated 7 days after treatment
Protocol: Soybean cv Williams 82 was transformed as previously described by Siminszky et al., Phytochem Rev. 5:445-458 (2006). After regeneration, transformants were transplanted to soil in small pots, placed in growth chambers (16 hr day/8 hr night; 25° C. day/23° C. night; 65% relative humidity; 130-150 μE m^−2 s^−1) and subsequently tested for the presence of the T-DNA via Taqman analysis. After a few weeks, healthy, transgenic positive, single copy events were transplanted to larger pots and allowed to grow in the growth chamber. An optimal shoot for cutting was about 3-4″ tall, with at least two nodes present. Each cutting was taken from the original transformant (mother plant) and dipped into rooting hormone powder (indole-3-butyric acid, IBA). The cutting was then placed in oasis wedges inside a bio-dome. The mother plant was taken to maturity in the greenhouse and harvested for seed. Wild type cuttings were also taken simultaneously to serve as negative controls. The cuttings were kept in the bio-dome for 5-7 days and then transplanted to 3″ pots and then acclimated in the growth chamber for two more days. Subsequently, the cuttings were transferred to the greenhouse, acclimated for approximately 4 days, and then subjected to spray tests containing 0, 25, and 50 g ai/ha saflufenacil plus 1% MSO. Herbicide injury evaluations were taken at 7 days after treatment.

[1] = tested on: maize, rice, and soybean transgenic systems; assay: Saflufenacil tolerance in transgenic plant systems (FIG. 3 legend); format: in vivo; settings: in one or more transgenic plant systems
transgenic maize plants = assay: Maize whole plant saflufenacil spray test (T0 and T1); format: in vivo; settings: 240 g ai/ha saflufenacil + 1% MSO at 2-4 leaf stage; rated 7 and 14 days after application
Protocol: Immature Embryo Transformation: Immature embryos were transformed according to the procedure outlined in WO2006/136596 to Peng et al. The exception was that a proportion of the embryos—25 in most cases—were placed on media containing saflufenacil and kept in the light for direct selection. The remaining embryos in each experiment were selected on Pursuit as described. Plants were tested utilizing Taqman analysis with the target being the nos terminator which is present in all constructs. Healthy looking plants were sent to the greenhouse for hardening out and subsequent spray testing. As with the BMS cells, RCB958 was utilized as a control both for transformation, saflufenacil selection, and for spray testing.
A total of 82 transgenic maize plants (2 constructs of interest and 1 control construct) were delivered to the greenhouse in tissue culture. The plants were individually transplanted into MetroMix 360 soil in 4″ pots. […]
Sixteen vectors harboring different P450 genes were tested for the ability to increase tolerance to saflufenacil in T0 maize plants. […] Injury rating was evaluated 7 and 14 days after application. FIG. 5 indicates the number of plants from each segregating event that were evaluated and scored for herbicidal injury.

CC(C)N(C)S(=O)(=O)NC(=O)c1cc(-n2c(=O)cc(C(F)(F)F)n(C)c2=O)c(F)cc1Cl [BAS800H, 2-chloro-5-[3,6-dihydro-3-methyl-2,6-dioxo-4-(trifluoromethyl)-1(2H)-pyrimidinyl]-4-fluoro-N-[[methyl(1-methylethyl)amino]sulfonyl]benzamide]
initial content of BAS800H converted into several metabolites (OsICYP81A6; after 24 h incubation in P450-expressing yeast, enzyme not specified (OsICYP81A6 and Sb01g007420.1 named)): 10%
degradation of BAS800H (OsICYP81A6; yeast cells expressing OsICYP81A6, 24 h incubation): catalyzed degradation
degradation of BAS800H (Sb01g007420.1): catalyzed degradation

B1: ZmNSF1: corn NSF1 cytochrome P450 gene/polypeptide, amino acid sequence SEQ ID NO:3 (protein)
chain: MDKAYIAALSAAALFLLHYLLGRRAGGEGKAKAKGSRRRLPPSPPAIPFLGHLHLVKAPFHGALARLAARHGPVFSMRLGTRRAVVVSSPDCARECFTEHDVNFANRPLFPSMRLASFDGAMLSVSSYGPYWRNLRRVAAVQLLSAHRVGCMAPAIEAQVRAMVRRMDRAAAAGGGGVARVQLKRRLFELSLSVLMETIAHTKTSRAEADADSDMSTEAHEFKQIVDELVPYIGTANRWDYLPVLRWFDVFGVRNKILDAVGRRDAFLGRLIDGERRRLDAGDESESKSMIAVLLTLQKSEPEVYTDTVITALCANLFGAGTETTSTTTEWAMSLLLNHREALKKAQAEIDAAVGTSRLVTADDVPHLTYLQCIVDETLRLHPAAPLLLPHESAADCTVGGYDVPRGTMLLVNVHAVHRDPAVWEDPDRFVPERFEGAGGKAEGRLLMPFGMGRRKCPGETLALRTVGLVLATLLQCFDWDTVDGAQVDMKASGGLTMPRAVPLEAMCRPRTAMRGVLKRL
modifications: Zea mays
level of tolerance to saflufenacil in T0 soybean cuttings (T0 soybean cuttings): greatest level of tolerance
conferred tolerance to saflufenacil [1]: conferred tolerance

B2: OsjCYP81A6: rice cytochrome P450 CYP81A6 gene/polypeptide, amino acid sequence SEQ ID NO:1 (protein, listed as Oryza sativa)
chain: MAFLGWAVDIARDSGASSSVVLTCDGYGSALYFSPWDSVPLPATASPDDGFLLPRFPDVCVQRSQFTNHLAPANGTGGGGSRTGVKEEASEVLSWPPTSKQSVRRLEVAEHWYRLYKTDNQRLSPDSQQVSVLAESHCDLASGNWKEISIHHKKMPSSTTTKTTTPSRDAWIVSARSDPFHLLLEAQAPLGIKADALSQIAAVHQSHRNTSHIRELSLAMDNAYIIAILSVAILFLLHYYLLGRGNGGAARLPPGPPAVPILGHLHLVKKPMHATMSRLAERYGPVFSLRLGSRRAVVVSSPGCARECFTEHDVTFANRPRFESQLLVSFNGAALATASYGAHWRNLRRIVAVQLLSAHRVGLMSGLIAGEVRAMVRRMYRAAAASPAGAARIQLKRRLFEVSLSVLMETIAHTKATRPETDPDTDMSVEAQEFKQVVDEIIPHIGAANLWDYLPALRWFDVFGVRRKILAAVSRRDAFLRRLIDAERRRLDDGDEGEKKSMIAVLLTLQKTEPEVYTDNMITALTANLFGAGTETTSTTSEWAMSLLLNHPDTLKKAQAEIDASVGNSRLITADDVTRLGYLQCIVRETLRLYPAAPMLLPHESSADCKVGGYNIPRGSMLLINAYAIHRDPAVWEEPEKFMPERFEDGGCDGNLLMPFGMGRRRCPGETLALRTVGLVLGTLIQCFDWERVDGVEVDMTEGGGLTIPKVVPLEAMCRPRDAMGGVLRELV
tolerance of segregating T1 maize events (reduced injury scores vs J553 wild type) (transgenic maize plants): increased tolerance
level of tolerance to saflufenacil in T0 soybean cuttings (T0 soybean cuttings): greatest level of tolerance

B3: OsCYP72A15: rice cytochrome P450 CYP72A15 gene/polypeptide, amino acid sequence SEQ ID NO:7 (protein, listed as Oryza sativa)
chain: MLMMLGAASQWILAAAAAAAVAALLWLAVSTLEWAWWTPRRLERALRAQGIRGNRYRLFTGDVPENVRLNREARKKPLPLGCHDIIPRVLPMFSKAVEEHGKPSFTWFGPTPRVMISDPESIREVMSNKFGHYGKPKPTRLGKLLASGVVSYEGEKWAKHRRILNPAFHHEKIKRMLPVFSNCCTEMVTRWENSMSIEGMSEVDVWPEFQNLTGDVISKTAFGSSYEEGRRIFQLQAESAERIIQAFRTIFIPGYWFLPTKNNRRLREIEREVSKLLRGIIGKRERAIKNGETSNGDLLGLLVESNMRESNGKAELGMTTDEIIEECKLFYFAGMETTSVLLTWTLIVLSMHPEWQERAREEVLHHFGRTTPDYDSLSRLKIVTMILYEVLRLYPPVVFLTRRTYKEMELGGIKYPAEVTLMLPILFIHHDPDIWGKDAGEFNPGRFADGISNATKYQTSFFPFGWGPRICIGQNFALLEAKMAICTILQRFSFELSPSYIHAPFTVITLHPQHGAQIKLKKI
conferred tolerance to saflufenacil [1]: conferred tolerance

B4: OsICYP81 A: CYP450 gene/polypeptide OsICYP81A6, amino acid sequence SEQ ID NO:29 (protein, listed as Oryza sativa)
chain: MDNAYIIAILSVAILFLLHYYLLGRGNGGAARLPPGPPAVPILGHLHLVKKPMHATMSRLAERYGPVFSLRLGSRRAVVVSSPGCARECFTEHDVTFANRPRFESQLLVSFNGAALATASYGAHWRNLRRIVAVQLLSAHRVGLMSGLIAGEVRAMVRRMYRAAAASPAGAARIQLKRRLFEVSLSVLMETIAHTKATRPETDPDTDMSVEAQEFKQVVDEIIPHIGAANLWDYLPALRWFDVFGVRRKILAAVSRRDAFLRRLIDAERRRLDDGDEGEKKSMIAVLLTLQKTEPEVYTDNMITALTANLFGAGTETTSTTSEWAMSLLLNHPDTLKKAQAEIDASVGNSRLITADDVTRLGYLQCIVRETLRLYPAAPMLLPHESSADCKVGGYNIPRGSMLLINAYAIHRDPAVWEEPEKFMPERFEDGGCDGNLLMPFGMGRRRCPGETLALRTVGLVLGTLIQCFDWERVDGVEVDMTEGGGLTIPKVVPLEAMCRPRDAMGGVLRELV
tolerance of segregating T1 maize events (reduced injury scores vs J553 wild type) (transgenic maize plants): increased tolerance
